Experimental data: US20230192886A1 (published 2023)

B1: R16P1E8 (TCR, V domains shown)
Valpha: QKEVEQDPGPLSVPEGAIVSLNCTYSNSAFQYFMWYRQYSRKGPELLMYTYSSGNKEDGRFTAQVDKSSKYISLFIRDSQPSDSATYLCAMSEAAGNKLTFGGGTRVLVKP
Vbeta: EAGVAQSPRYKIIEKRQSVAFWCNPISGHATLYWYQQILGQGPKLLIQFQNNGVVDDSQLPKDRFSAERLKGVDSTLKIQPAKLEDSAVYLCASSYTNQGEAFFGQGTRLTVV
B2: R17P1A9 (TCR, V domains shown)
Valpha: QKEVEQNSGPLSVPEGAIASLNCTYSDRGSQSFFWYRQYSGKSPELIMSIYSNGDKEDGRFTAQLNKASQYVSLLIRDSQPSDSATYLCAVLNQAGTALIFGKGTTLSVSS
Vbeta: DSGVTQTPKHLITATGQRVTLRCSPRSGDLSVYWYQQSLDQGLQFLIQYYNGEERAKGNILERFSAQQFPDLHSELNLSSLELGDSALYFCASSAETGPWLGNEQFFGPGTRLTVL
B3: R17P1D7 (TCR, V domains shown)
Valpha: AQTVTQSQPEMSVQEAETVTLSCTYDTSESDYYLFWYKQPPSRQMILVIRQEAYKQQNATENRFSVNFQKAAKSFSLKISDSQLGDAAMYFCAYRWAQGGSEKLVFGKGTKLTVNP
Vbeta: EADIYQTPRYLVIGTGKKITLECSQTMGHDKMYWYQQDPGMELHLIHYSYGVNSTEKGDLSSESTVSRIRTEHFPLTLESARPSHTSQYLCATELWSSGGTGELFFGEGSRLTVL

Molecular target: T1, PRAME (PRAME-004) peptide on HLA-A*02:01 (human)
T1 peptide: SLLQHLIGL
Test: cytokine release

Binding result, recognises:
B1
B2
B3
